Data reported in US20160185832A1.

Legend:
[1] = target: microtubules polymerized in mouse brain homogenate (mouse) (UniProt P05213); assay: microtubule co-sedimentation from mouse brain homogenate, western blot (FIG. 6F)
[2] = target: pure, pre-polymerized, taxol-stabilized microtubules of bovine tubulin (Cytoskeleton) (bovine) (UniProt P81947); assay: in vitro microtubule co-sedimentation, percent of construct in the microtubule pellet (FIG. 4D)
[3] = target: microtubule network of cultured human cells (hTERT-RPE1, 293T) (human) (UniProt P68363); assay: cell-based or functional assay
Sequence of microtubule network of cultured human cells (hTERT-RPE1, 293T) (human) (P68363 whole entry, chain 1 of 2): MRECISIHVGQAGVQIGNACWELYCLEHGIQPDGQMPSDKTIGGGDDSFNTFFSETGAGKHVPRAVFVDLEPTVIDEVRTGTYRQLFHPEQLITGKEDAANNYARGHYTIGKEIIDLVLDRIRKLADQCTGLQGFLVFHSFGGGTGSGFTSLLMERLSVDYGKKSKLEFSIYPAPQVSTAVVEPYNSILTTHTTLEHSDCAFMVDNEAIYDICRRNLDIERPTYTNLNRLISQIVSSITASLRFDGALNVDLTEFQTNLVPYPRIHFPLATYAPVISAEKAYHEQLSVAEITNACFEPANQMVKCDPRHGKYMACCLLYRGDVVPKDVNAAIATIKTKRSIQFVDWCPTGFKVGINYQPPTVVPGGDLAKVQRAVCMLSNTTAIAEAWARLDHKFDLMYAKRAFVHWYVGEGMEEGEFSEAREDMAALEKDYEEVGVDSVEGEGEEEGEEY
Sequence of microtubule network of cultured human cells (hTERT-RPE1, 293T) (human) (P07437 whole entry, chain 2 of 2, further chain): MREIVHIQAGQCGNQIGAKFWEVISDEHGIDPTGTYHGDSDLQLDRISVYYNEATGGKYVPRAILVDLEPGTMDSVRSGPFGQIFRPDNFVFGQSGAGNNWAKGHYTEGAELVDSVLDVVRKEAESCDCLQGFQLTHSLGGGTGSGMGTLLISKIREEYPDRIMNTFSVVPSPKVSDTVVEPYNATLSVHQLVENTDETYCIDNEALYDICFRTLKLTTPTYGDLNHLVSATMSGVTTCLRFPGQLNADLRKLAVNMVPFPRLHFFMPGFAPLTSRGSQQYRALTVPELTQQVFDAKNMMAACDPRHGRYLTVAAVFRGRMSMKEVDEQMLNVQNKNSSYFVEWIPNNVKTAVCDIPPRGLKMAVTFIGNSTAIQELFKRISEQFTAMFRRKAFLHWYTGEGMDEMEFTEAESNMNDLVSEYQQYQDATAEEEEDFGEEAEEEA

Sequence of microtubules polymerized in mouse brain homogenate (mouse) (P05213 whole entry, chain 1 of 2): as the sequence (P68363 whole entry, chain 1 of 2) above
Sequence of microtubules polymerized in mouse brain homogenate (mouse) (Q9CWF2 whole entry, chain 2 of 2, further chain): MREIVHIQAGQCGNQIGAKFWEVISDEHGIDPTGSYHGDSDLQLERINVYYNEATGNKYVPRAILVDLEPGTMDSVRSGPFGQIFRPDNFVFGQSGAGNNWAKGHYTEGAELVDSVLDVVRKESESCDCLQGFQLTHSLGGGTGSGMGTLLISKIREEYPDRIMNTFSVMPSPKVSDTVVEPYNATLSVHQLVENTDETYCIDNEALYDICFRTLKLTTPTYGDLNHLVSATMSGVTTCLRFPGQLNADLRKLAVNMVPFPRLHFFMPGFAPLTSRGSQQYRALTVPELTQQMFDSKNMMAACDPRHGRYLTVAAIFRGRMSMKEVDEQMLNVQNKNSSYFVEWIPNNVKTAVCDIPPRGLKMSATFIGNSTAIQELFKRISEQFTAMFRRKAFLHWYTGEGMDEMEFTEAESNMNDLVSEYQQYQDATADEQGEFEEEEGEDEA
Sequence of pure, pre-polymerized, taxol-stabilized microtubules of bovine tubulin (Cytoskeleton) (bovine) (P81947 whole entry, chain 1 of 2): as the sequence (P68363 whole entry, chain 1 of 2) above
Sequence of pure, pre-polymerized, taxol-stabilized microtubules of bovine tubulin (Cytoskeleton) (bovine) (Q6B856 whole entry, chain 2 of 2, further chain): as the sequence (Q9CWF2 whole entry, chain 2 of 2, further chain) above

Substance	percent associated with microtubules [1] [%]	percent associated with microtubules [2] [%]	percent of transfected cells with increased microtubule acetylation and bundling [3] [%]	percent of transfected hTERT-RPE1 cells with a fibrillar localization pattern [3] [%]
full length wild type (WT) mouse Cep290 from mouse brain homogenate, Q6A078 1-2472	60	–	–	–
GFP fusion of full length human CEP290 (aa 1-2479), O15078 1-2479	–	< 50	40	10
